Data taken from article PMC3718016.

Assays:
[1] = biological target: SRPK1(ΔN), SRPK1 without the N-terminus (UniProt Q96SB4)
SRPK1(ΔNCT) = SRPK1(ΔNCT) (UniProt Q96SB4)
SRPK1(ΔNNT) = SRPK1(ΔNNT) (UniProt Q96SB4)
[2] = biological target: SRPK1(ΔS), SRPK1 without the spacer insert domain (UniProt Q96SB4)
SRPK1(ΔSINT) = SRPK1(ΔSINT) (UniProt Q96SB4)
SRPK1(ΔSα1) = SRPK1(ΔSα1) (UniProt Q96SB4)
SRPK1(ΔSα2) = SRPK1(ΔSα2) (UniProt Q96SB4)

Km for SRSF1 (KSR), steady-state phosphorylation of SRSF1 [1]: 0.44 µM | Km for SRSF1 (KSR), steady-state phosphorylation of SRSF1 (SRPK1(ΔNCT)): 0.41 µM | Km for SRSF1 (KSR), steady-state phosphorylation of SRSF1 (SRPK1(ΔNNT)): 0.038 µM | Km for SRSF1 (KSR), steady-state phosphorylation of SRSF1 [2]: 0.14 µM | kcat/KSR (steady-state kinetics with maximum viscosity effect) (SRPK1(ΔSINT)): 5.3e+06 M⁻¹ s⁻¹ | kcat/KSR (steady-state kinetics with maximum viscosity effect) (SRPK1(ΔSα1)): 2.2e+06 M⁻¹ s⁻¹ | kcat/KSR (steady-state kinetics with maximum viscosity effect) (SRPK1(ΔSα2)): 6.9e+06 M⁻¹ s⁻¹
Substance: SR protein splicing factor 1 (SRSF1) (from UniProt Q07955 1-248) (natural protein)
